This note sets out measurements from publication PMC4682053, “Mechanisms of assembly and genome packaging in an RNA virus revealed by high-resolution cryo-EM” (Nature Communications, 2015).

The data set concerns the molecule itself. In words: cryo-EM structure; CPMV eVLP purified from N. benthamiana leaves, ~4.2 mg/ml on the grid; single particles, icosahedral symmetry imposed; 3.04 Å; atomic model built de novo.

The term stoichiometry N denotes the number of molecules, sites or subunits per partner or assembly.

B1: Cowpea mosaic virus Small (S) coat protein with its C-terminal extension, in the empty virus-like particle (eVLP) (natural protein)
chain: GPVCAEASDVYSPCMIASTPPAPFSDVTAVTFDLINGKITPVGDDNWNTHIYNPPIMNVLRTAAWKSGTIHVQLNVRGAGVKRADWDGQVFVYLRQSMNPESYDARTFVISQPGSAMLNFSFDIIGPNSGFEFAESPWANQTTWYLECVATNPRQIQQFEVNMRFDPNFRVAGNILMPPFPLSTETPPLLKFRFRDIERSKRSVMVGHTATAA
notes: Small (S) coat protein of cowpea mosaic virus, cut from the RNA-2-encoded precursor VP60 by the 24K proteinase; C-terminal 24 amino acids (190-213) kept; modelled up to Arg202, without 184-189; numbers count on: the S subunit; the particles imaged kept it; also called S subunit; small coat protein; source: N. benthamiana, agroinfiltrated with pEAQ-HT-VP60 and pEAQ-HT-24K or pEAQexpress-VP60-24K; …
B1: the “stoichiometry N” value was 5.
